The results in this text go back to PMC10939263.

One assay concerns the target BLK, C1-fused (UniProt P51451). As to the kind of experiment: luciferase complementation assay (normalized luciferase ratio, NLR). The following applies: HEK293T cells; one experiment; read off a plot.
A further assay deals with BLK, N1-fused (UniProt P51451). The description is as above. To be noted: HEK293T cells; one experiment; read off a plot.
The target of the next assay is FGR, C1-fused (UniProt P09769). The description is as above. The following applies: HEK293T cells; one experiment; read off a plot.
The target in the next assay is FRK, C1-fused (UniProt P42685). The description is as above. To be noted: HEK293T cells; one experiment; read off a plot.
In assay [1] the target is FYN (isoform without exon 7), C1-fused, P06241-3. Described as above. The following applies: HEK293T cells; one experiment; read off a plot.
Assay [2] concerns the target FYN (isoform without exon 7), N1-fused, P06241-3. The assay is described as above. The following applies: HEK293T cells; one experiment; read off a plot.
The target of assay [3] is HCK wild type, C1-fused, P08631-2. The description is as above. The following applies: HEK293T cells; one experiment; read off a plot.
For a further assay, the target named is LCK wild type, C1-fused (UniProt P06239). The assay is described as above. The following applies: HEK293T cells; one experiment; read off a plot.
The target in the next assay is LYN, C1-fused (UniProt P07948). The assay is described as above. To be noted: HEK293T cells; one experiment; read off a plot.
Another assay deals with LYN, N1-fused (UniProt P07948). The assay is described as above. To be noted: HEK293T cells; one experiment; read off a plot.
In a further assay the target is C1-fused SRC kinases. The experiment in a line: split reporter (BiFC, NanoBiT); Gaussia princeps luciferase complementation assay in human HEK293T cells; Gluc2 at the N terminus of SKAP1 or SKAP2 (N2), Gluc1 at the N terminus (N1) or C terminus (C1) of the SRC kinase; 100 ng plasmid pair, PEI; luminescence read in lysate one day later; normalized luminescence ratio (NLR), given relative to wild type or to SKAP2.

As to “SRC kinase associated phosphoprotein 1 (SKAP1), wild type, N2-fused (from UniProt Q86WV1) DIM-”, the ratio to parent was found to be 0.9 in the assay with BLK, C1-fused; 0.7 in the assay with BLK, N1-fused; 1.3 in the assay with FGR, C1-fused; 0.64 in the assay with FRK, C1-fused; 0.78 in assay [1]; 0.66 in assay [2]. Moreover, the ratio to parent in assay [3] is 1.3; with LCK wild type, C1-fused, 0.68; in the assay with LYN, C1-fused it was 1.2; with LYN, N1-fused it was 0.93.

Regarding “SRC kinase associated phosphoprotein 1 (SKAP1), wild type, N2-fused (from UniProt Q86WV1 1-359) (natural protein)”, the SKAP2 normalized NLR, mean over C1-fused SRC kinases (against wild type SKAP2) in the assay with C1-fused SRC kinases stood at 0.39.
